Here are results for twelve molecules from patent publication US20220362394A1 (SUTRO BIOPHARMA, published 2022).

To fix the notation:
B1: 2265-F03 (antibody, V domains shown)
VH: EVQLVESGGGLVQPGGSLRLSCAASGFNIRGPGIHWVRQAPGKGLEWVGFISPAAGYTDYADSVKGRFTISADTSKNTAYLQMNSLRAEDTAVYYCARDFVQSYWTYVLDYWGQGTLVTVSS
VL: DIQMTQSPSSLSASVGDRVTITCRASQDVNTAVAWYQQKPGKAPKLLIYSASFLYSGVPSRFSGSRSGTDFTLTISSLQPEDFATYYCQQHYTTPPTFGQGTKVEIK
notes: also called Antibody 7
B2: 2265-F05 (antibody, V domains shown)
VH: B1 VH with R30I, G31A, S52N, A55G, F100Y, Q102N, S103A
VL: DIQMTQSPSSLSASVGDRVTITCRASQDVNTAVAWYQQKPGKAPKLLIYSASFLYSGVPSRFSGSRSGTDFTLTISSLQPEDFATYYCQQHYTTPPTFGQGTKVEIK
notes: also called Antibody 3
B3: 2265-F06 (antibody, V domains shown)
VH: B1 VH with R30S, G31Y, S52N, A55G, F100Y, V101I, Q102L, S103Q
VL: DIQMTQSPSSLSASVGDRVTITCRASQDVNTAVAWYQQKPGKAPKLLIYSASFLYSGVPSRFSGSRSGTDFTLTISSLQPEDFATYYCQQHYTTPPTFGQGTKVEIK
notes: also called Antibody 2
B4: 2290-A02 (antibody, V domains shown)
VH: EVQLVESGGGLVQPGGSLRLSCAASGFNISTRWIHWVRQAPGKGLEWVGVITPSAGYTHYADSVKGRFTISAGTSKNTAYLQMNSLRAEDTAVYYCARDLGSRYWVGVFDYWGQGTLVTVSS
VL: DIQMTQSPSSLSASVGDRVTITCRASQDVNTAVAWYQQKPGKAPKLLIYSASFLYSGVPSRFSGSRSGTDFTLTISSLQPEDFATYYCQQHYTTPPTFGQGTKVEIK
notes: also called Antibody 22
B5: 2290-C08 (antibody, V domains shown)
VH: EVQLVESGGGLVQPGGSLRLSCAASGFNIQPYWIHWVRQAPGKGLEWVGVITPPSGYTYYADSVKGRFTISADTSKNTAYLQMNSLRAEDTAVYYCARDWGVGYWVGFSDYWGQGTLVTVSS
VL: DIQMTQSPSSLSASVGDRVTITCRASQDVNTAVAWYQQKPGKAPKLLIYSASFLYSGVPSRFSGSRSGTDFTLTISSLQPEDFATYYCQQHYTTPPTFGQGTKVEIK
notes: also called Antibody 21
B6: 2213-A06 (antibody, V domains shown)
VH: EVQLVESGGGLVQPGGSLRLSCAASGFNISSYAIHWVRQAPGKGLEWVGVISPYGGYTEYADSVKGRFTISADTSKNTAYLQMNSLRAEDTAVYYCARDFYDRYSTYVLDYWGQGTLVTVSS
VL: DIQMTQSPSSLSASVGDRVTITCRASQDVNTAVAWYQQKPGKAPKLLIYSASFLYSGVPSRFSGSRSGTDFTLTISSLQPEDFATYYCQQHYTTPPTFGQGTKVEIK
notes: also called Antibody 23
B7: 2291-A04 (antibody, V domains shown)
VH: B6 VH with A33G, V50F, G55D, D73G, Y101N, S105F
VL: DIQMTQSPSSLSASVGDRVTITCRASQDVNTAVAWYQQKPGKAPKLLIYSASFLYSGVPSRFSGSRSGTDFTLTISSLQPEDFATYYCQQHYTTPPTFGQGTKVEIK
notes: also called Antibody 28
B8: 2291-E06 (antibody, V domains shown)
VH: B6 VH with S31P, A33T, G49A, V50H, S52F, Y54S, E59D, S105A
VL: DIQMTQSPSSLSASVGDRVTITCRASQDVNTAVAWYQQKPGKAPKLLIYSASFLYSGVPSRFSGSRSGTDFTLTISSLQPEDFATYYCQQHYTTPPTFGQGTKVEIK
notes: also called Antibody 25
B9: 2137-A05 (antibody, V domains shown)
VH: EVQLVESGGGLVQPGGSLRLSCAASGFNINNSYIHWVRQAPGKGLEWVGWIYPYSGYTNYADSVKGRFTISADTSKNTAYLQMNSLRAEDTAVYYCARDYGPWYGTGVLDYWGQGTLVTVSS
VL: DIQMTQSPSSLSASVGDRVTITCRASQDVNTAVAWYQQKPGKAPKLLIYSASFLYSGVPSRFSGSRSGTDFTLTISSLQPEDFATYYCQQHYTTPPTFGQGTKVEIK
notes: also called Antibody 14
B10: 2288-A03 (antibody, V domains shown)
VH: B9 VH with Y33W, S55I, Y57F, N59E, G101D, P102L, W103R, G105L
VL: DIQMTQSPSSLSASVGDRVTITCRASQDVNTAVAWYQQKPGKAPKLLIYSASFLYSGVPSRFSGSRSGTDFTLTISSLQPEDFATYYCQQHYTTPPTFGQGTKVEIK
notes: also called Antibody 15
B11: 2290-G01 (antibody, V domains shown)
VH: B5 VH with Q30S, Y57F, M83V, W100L
VL: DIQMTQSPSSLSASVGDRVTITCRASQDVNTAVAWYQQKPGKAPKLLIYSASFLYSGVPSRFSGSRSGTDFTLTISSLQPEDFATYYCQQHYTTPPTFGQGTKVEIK
notes: also called Antibody 17
B12: 2290-C07 (antibody, V domains shown)
VH: B5 VH with Q30T, P31Y, Y32D, P54F, S55D, R67H, W100M
VL: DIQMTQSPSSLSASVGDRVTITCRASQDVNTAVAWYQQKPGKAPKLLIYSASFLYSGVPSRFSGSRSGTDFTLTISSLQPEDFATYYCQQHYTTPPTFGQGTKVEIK
notes: also called Antibody 19

Changes are numbered by the printed parent chain.

One test addresses T1, human BCMA on cells (human, UniProt Q02223 1-184).
T1 construct: also called hBCMA; BCMA on NCI-H929, ARP-1, OPM-2, U266B1, MM.1S, RPMI-8226 cells
T1 sequence: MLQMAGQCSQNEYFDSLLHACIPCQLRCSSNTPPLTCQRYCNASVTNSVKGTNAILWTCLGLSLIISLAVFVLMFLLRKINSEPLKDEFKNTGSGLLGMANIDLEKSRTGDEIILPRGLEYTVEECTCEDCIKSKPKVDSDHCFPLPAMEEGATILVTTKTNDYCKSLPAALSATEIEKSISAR
As to the kind of experiment: FACS, NCI-H929 cells. How it is done: (§1) Variants for which sufficient protein was purified in secondary screening were tested in a fluorescence-activated cell sorting (FACS) cell-binding assay. […] 6-12 point dilutions of anti-BCMA variants starting from concentrations of about 100-200 nM antibody were dispensed into each well using a BioMekFX (Beckman Coulter). Cells were then incubated on ice for 1 hr, washed with FACS buffer and incubated for 1 hr on ice with […] FACS buffer containing 2.5 μg/ml Alexa647-conjugated Goat Anti-Human IgG dispensed using BioMekFX (Beckman Coulter). Cells were then washed 2× with FACS buffer and fixed for 10 minutes in […] PBS with 2% paraformaldehyde (PFA) prior to fluorescence detection. Samples were acquired using a Beckton Dickinson LSRII FACS. Geometric Mean Fluorescence Intensity of BCMA antibody binding was analyzed using FlowJo® software (Tree Star, Inc.).
On to B1, for which the Bmax was 11200 MFI and the Kd worked out at 4.3 nM.

With B2, the Bmax came out at 11900 MFI and the Kd stood at 6.2 nM.

Turning to B3, the Bmax is 11400 MFI and the affinity, expressed as Kd, was 4.5 nM.

The molecule B4 returned a Bmax of 33600 MFI and a Kd of 4.9 nM.

Turning to B5, the Bmax was determined as 37800 MFI and the Kd stood at 11 nM.

With B6, the Bmax came to 2510 MFI and the affinity, expressed as Kd, was 5.3 nM.

As to B7, the Bmax is 33900 MFI and the Kd is 5 nM.

Take B8: the Bmax worked out at 34400 MFI and the Kd came out at 5.8 nM.

On to B9, for which the Bmax amounted to 2690 MFI and the affinity, expressed as Kd, was 10 nM.

In turn, B10 came in with a Bmax of 16300 MFI and a Kd of 4.8 nM.

For the next test, the target named is T2, human BCMA-Fc (human, UniProt Q02223 1-54).
T2 construct: Bought from R&D Systems; also called huBCMA-Fc; not shown: Fc part not described
T2 sequence: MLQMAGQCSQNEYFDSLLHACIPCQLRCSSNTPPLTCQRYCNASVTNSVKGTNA
The test can be described thus: ELISA, coated huBCMA-Fc. On the technique in general: An ELISA detects its analyte on a solid surface through an enzyme-linked reagent.
B4 came in with a Bmax of 4.87e+06 and an EC50 of 0.4 nM.

B11 gave a Bmax of 4.83e+06 and an EC50 of 0.3 nM.

The molecule B12 had a Bmax of 4.12e+06 and an EC50 of 0.2 nM.

As to B5, the Bmax is 4.33e+06 and the EC50 came out at 0.3 nM.

B6 returned a Bmax of 3.68e+06 and an EC50 of 0.2 nM.

Consider B7, for which the Bmax amounted to 4.6e+06 and a half-maximal response (EC50) required 0.23 nM.

As for B8, the Bmax was 4.11e+06 and the EC50 worked out at 0.21 nM.

As to B9, the Bmax is 3.3e+06 and the EC50 came out at 0.52 nM.

Regarding B10, the Bmax turned out to be 4.24e+06 and the EC50 is 0.56 nM.

Another test deals with cynomolgus BCMA on cells (cynomolgus monkey, UniProt Q02223 1-184 (human entry)). As to the kind of experiment: FACS, 293T-cynoBCMA cells. As to the method: as §1
Sequence of cynomolgus BCMA on cells (Q02223 other isoform, or with tags, fused parts or gaps): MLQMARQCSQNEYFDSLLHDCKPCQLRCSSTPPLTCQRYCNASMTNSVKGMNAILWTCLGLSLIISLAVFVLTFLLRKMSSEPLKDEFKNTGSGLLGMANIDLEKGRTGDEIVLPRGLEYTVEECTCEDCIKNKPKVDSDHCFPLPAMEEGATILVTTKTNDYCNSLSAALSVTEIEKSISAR
A general note: A flow cytometer gives signals particle by particle.
As to B1, the Bmax turned out to be 17400 MFI and the Kd came out at 2.5 nM.

B2 yielded a Bmax of 26600 MFI and a Kd of 3.4 nM.

For the molecule B3, the Bmax is 25800 MFI and the Kd is 3.4 nM.

In the case of B4, the Bmax is 70300 MFI and binding was put at a Kd of 2.3 nM.

In turn, B11 showed a Bmax of 77100 MFI and a Kd of 4.7 nM.

Turning to B12, the Bmax came to 78100 MFI and the Kd turned out to be 6.7 nM.

For B5, the Bmax amounted to 71000 MFI and the affinity, expressed as Kd, was 2.3 nM.

Consider B6, for which the Bmax came out at 3620 MFI and the Kd is 15.1 nM.

B7 displayed a Bmax of 63800 MFI and a Kd of 1.2 nM.

The molecule B8 returned a Bmax of 68300 MFI and a Kd of 1.4 nM.

For B9, the Bmax was determined as 1910 MFI and the Kd is 18.3 nM.

B10 gave a Bmax of 46800 MFI and a Kd of 1.8 nM.

For a further test, the target named is T3, cyno BCMA-Fc (cynomolgus monkey, UniProt Q02223 1-54 (human entry)).
T3 construct: Custom protein production; also called cynomolgus BCMA-Fc; not shown: Fc part not described
The test can be described thus: ELISA, coated cynoBCMA-Fc.
B4 returned a Bmax of 4.47e+06 and an EC50 of 0.4 nM.

The molecule B11 gave a Bmax of 4.6e+06 and an EC50 of 0.3 nM.

B12: the Bmax turned out to be 3.81e+06 and the EC50 came to 0.2 nM.

As for B5, the Bmax worked out at 4.14e+06 and the EC50 was 0.2 nM.

On to B6, for which the Bmax came to 2.23e+06 and the EC50 turned out to be 39 nM.

B7: the Bmax stood at 4.23e+06 and the midpoint of the response, the EC50, lay at 0.2 nM.

The molecule B8 registered a Bmax of 3.36e+06 and an EC50 of 0.13 nM.

Regarding B9, the Bmax is 2.2e+06 and the EC50 turned out to be 419 nM.

Turning to B10, the Bmax amounted to 3.02e+06 and the 50% effective concentration (EC50) came to 0.57 nM.

Another test deals with T2, human BCMA-Fc. The test can be described thus: SPR Biacore, antibody captured, 25 C. How it is done:
(§2) Anti-Fab or anti-Fc polyclonal antibodies were immobilized onto a CM5 chip (GE Life Sciences) using amine coupling chemistry (from Amine Coupling Kit, GE Life Sciences). The immobilization steps were carried out at a flow rate of 25 μL/min in 1×HBS-EP+ buffer (GE Life Sciences; 10× Stock diluted before use). The sensor surfaces were activated for 7 min with a mixture of NHS (0.05 M) and EDC (0.2 M). The anti-Fab or anti-Fc antibodies were injected over all 4 flow cells at a concentration of 25 μg/ml in 10 mM sodium acetate, pH 4.5, for 7 min. Ethanolamine (1 M, pH 8.5) was injected for 7 min to block any remaining activated groups.
(§3) Off-rate and kinetic binding experiments were performed at 25° C. using 1×HBS-EP+ buffer. […] After capturing ligand (antibody) on the anti-Fab or anti-Fc surface, the analyte (human BCMA-Fc, cyno BCMA-Fc, or human BCMA from R&D Systems, custom protein production, or Sigma Aldrich, respectively) was bound for 180 seconds, followed by a 600 second dissociation phase at a flow rate of 50 μL/min. Between each ligand capture and analyte binding cycle, regeneration was carried out using 2 injections of 10 mM glycine pH 2.0 for 30 seconds at 30 μL/min, followed by a 30 second buffer wash step.
(§4) The data was fit with the Biacore T200 Evaluation software, using a 1-1 Langmuir binding model. KD (affinity, nM) was determined as a ratio of the kinetic rate constants calculated from the fits of the association and dissociation phases.
Background: Surface plasmon resonance follows binding to a sensor surface in real time, without labels.
In turn, B1 yielded a Kd of 0.633 nM, a koff of 0.000474 s⁻¹ and a kon of 749000 M⁻¹ s⁻¹.

B2 gave a Kd of 0.469 nM, a koff of 0.00024 s⁻¹ and a kon of 512000 M⁻¹ s⁻¹.

With B3, binding was put at a Kd of 0.276 nM, the koff came to 0.000193 s⁻¹ and the kon was 699000 M⁻¹ s⁻¹.

With B4, the Kd is 0.567 nM, the koff amounted to 0.000131 s⁻¹ and the kon was found to be 231000 M⁻¹ s⁻¹.

Regarding B11, the affinity, expressed as Kd, was 0.445 nM; the koff came to 0.000318 s⁻¹; the kon was 714000 M⁻¹ s⁻¹.

B12: the Kd is 0.612 nM, the koff amounted to 0.000221 s⁻¹ and the kon was 361000 M⁻¹ s⁻¹.

As to B5, the affinity, expressed as Kd, was 0.378 nM; the koff was found to be 0.000252 s⁻¹; the kon turned out to be 666000 M⁻¹ s⁻¹.

Take B6: binding was characterised by a dissociation constant (Kd) of 2.08 nM, the koff worked out at 0.00283 s⁻¹ and the kon is 1.36e+06 M⁻¹ s⁻¹.

B7: the Kd was 0.716 nM, the koff is 0.000349 s⁻¹ and the kon amounted to 487000 M⁻¹ s⁻¹.

As to B8, the Kd is 0.763 nM, the koff came out at 0.000357 s⁻¹ and the kon came out at 468000 M⁻¹ s⁻¹.

For B9, the Kd was found to be 2.36 nM, the koff came to 0.00332 s⁻¹ and the kon worked out at 1.41e+06 M⁻¹ s⁻¹.

The molecule B10 showed a Kd of 0.557 nM, a koff of 0.000516 s⁻¹ and a kon of 927000 M⁻¹ s⁻¹.

Another test concerns the target T3, cyno BCMA-Fc. The test can be described thus: SPR Biacore, antibody captured, 25 C. How it is done: as §2, §3, §4
On to B1, for which binding was put at a Kd of 7.9 nM, the koff was determined as 0.00274 s⁻¹ and the kon is 346000 M⁻¹ s⁻¹.

The molecule B2 returned a Kd of 4.39 nM, a koff of 0.00114 s⁻¹ and an on-rate (kon) of 260000 M⁻¹ s⁻¹.

For the molecule B3, binding was characterised by a dissociation constant (Kd) of 3.84 nM, the koff stood at 0.00133 s⁻¹ and the kon is 347000 M⁻¹ s⁻¹.

Usually Kd stands for the free concentration of one partner at which half of the binding sites on the other are occupied at equilibrium, for simple one-to-one binding. High values mean weaker binding, low ones tighter binding. The EC50 is the concentration giving half of the maximal effect. One may read the koff as a measure of how fast the partners let go of each other. A higher koff goes with a short-lived complex. For orientation: kon means the second-order rate constant of association. Low readings indicate slower complex formation, high ones faster complex formation.
